Test results from a protein production outcome set (Wang et al. 2014).

Assay: label from the status in PepcDB records
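Further: failed if final PepcDB status was selected cloned or expressed and not failed if soluble or beyond.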

Sequence	protein production
MSESVNKKITDGNYDKTLAVKCVNGTFVGKKTEGVIAYKGIPFVGQQPVGKLRWKAPVDVTPSNDVYEAYNYEKAPVQAPGDPAIENGMGEDCLYLNIWRADETVTEKKPVIVWIYGGGFEVGGTSDPQYDCHSLVKENPDVILVSLAYRVSFFGFMHLSHLSDGKDYQDAPNLGLLDQLMGLKWVHENIANFGGDPDNVTIWGESAGGASVTLLPLIKGSHQYFKRVIAQSGAPAQTRSEEQAIAITDHVMKELGCKTVADLLKVSAQEFADTWARLYGFYQVLGIRTFPERDGRCLPLNPWEAYANGAAKDITFLQGCNKDEMNTFLGSIGVDRWNAWANQRKAEKLIQLTDEEKALVESYCNDIQGESYEPTVRLFSQIMFQVPQIRLSEEQTKGGGKSYTYLFTPESSVPLIKCGHITELSALFNHPEITAFTGRAYDETFCKTMRKMWIQFAKTGNPSLTAEMSPDGKAKEWPLYDTEKKVMVLDEQNIHPAKESELKIVDWERTYFLTNYYMP	failed
MSFALGQRWISDTESDLGLGTVVALDARTVTLMFAASEENRVYARSDAPVTRVIFNVGDVVDSQQGWSLQVEQVVEDQGVYTYLGTRVDTEESGVALREIFLSNQIRFNKPQDKLFAGQIDRMDNFVLRY	not failed
MSFDRPEIYSAPVLQGESPNDDDNTEIIKSFKNFILEFRLDSQFIYRDQLRNNILVKNYSLTVNMEHLIGYNEDIYKKLSDEPSDIIPLFETAITQVAKRISILSRAQSANNNDKDPENTSMDTDSLLLNSLPTFQLILNSNANQIPLRDLDSEHVSKIVRLSGIIISTSVLSSRATYLSIMCRNCRHTTSITINNFNSITGNTVSLPRSCLSTIESESSMANESNIGDESTKKNCGPDPYIIIHESSKFIDQQFLKLQEIPELVPVGEMPRNLTMTCDRYLTNKVIPGTRVTIVGIYSIYNSKNGAGSGRSGGGNGGSGVAIRTPYIKILGIQSDVETSSIWNSVTMFTEEEEEEFLQLSRNPKLYEILTNSIAPSIFGNEDIKKAIVCLLMGGSKKILPDGMRLRGDINVLLLGDPGTAKSQLLKFVEKVSPIAVYTSGKGSSAAGLTASVQRDPMTREFYLEGGAMVLADGGVVCIDEFDKMRDEDRVAIHEAMEQQTISIAKAGITTVLNSRTSVLAAANPIYGRYDDLKSPGDNIDFQTTILSRFDMIFIVKDDHNEERDISIANHVINIHTGNANAMQNQQEENGSEISIEKMKRYITYCRLKCAPRLSPQAAEKLSSNFVTIRKQLLINELESTERSSIPITIRQLEAIIRITESLAKLELSPIAQERHVDEAIRLFQASTMDAASQDPIGGLNQASGTSLSEIRRFEQELKRRLPIGWSTSYQTLRREFVDTHRFSQLALDKALYALEKHETIQLRHQGQNIYRSGV	failed
MSFEAFTELYIRDVKTRLKENTWLTKEHIIRTKILPYFGKLRISEISTKEIITWQNELLAYRDEKKKPYSQTYLKTLHNQLSAIFNHAVRYYELRSNPAAKVGNMGSE	failed
MSFFNKIILIGRLVRDPEERYTLSGTPVTTFTIAVDRVPRKNAPDDAQTTDFFRIVTFGRLAEFARTYLTKGRLVLVEGEMRMRRWETPTGEKRVSPEVVANVVRFMDRKPAETVSETEEELEIPEEDFSSDTFSEDEPPF	not failed
MSFGNEKGQDIIHRKEVEFFVKNLKDYFSNINKYVVILWDEEGIILEFKENGGNLLGYTPEQIEGKKWPDILTDGKDKEQTTEINKKLVNSKIVRYYINSIKDVNGTSKIFLWCNLKLENVQSDKKIFLSVGFNLDSIDNLKEKTDESKFELDTLNEKKENLEFKVTKDDLILKQKDDTIRDYKSKLEFLAFYDELTGLPNKNSLIRWLNLKVSQMDCIDTYLIFLEVRDLEKLNVTYGYDLVDELIIHISKRIKDIAGEGNKAFKIGFDRFAIICKSENISDFIERMLSQLLLPYNVNGNLIRVNFNIGAAQIENSNEAAANLMRRCDLALIKAKEEGLNEYVIFKPSIEIQTLKEGILERELRNGIELNEFIVFYQPFVKLENDKICGFEALLRWYYLKSVFVSPLEFIPVAEKYGLIIDLGNMVLKQSLKAGKILKKYYDDEFTISINISPKQFIDKRFVKNTIEILENEKLQDIRLRFEITEKVAIENIDYTIRIMNEFKKYNVTFALDDFGVEYSSLNYLRKLPIEAVKIDKSFVQDINDHDTYFIVETIVKLCKKLNLKTVIEGVETQRQYQIIKELGCDYAQGYFIAKPLPINELINLVGKYKILE	failed
MSFKNDHKYQWKDMQGKDFLLPFIYLIGNFCLSIVILTIMIGINETQGKNNANFNANFSGTPGILMEMIAFIIIFALWILFHRHSFRQSWKQGLQNIKQHWKLIVITFIVIIVFKEIYPYLVNAFAPEHWKFEETQNDKMVEEMFATPVSTILAFFSIVIIAPMTEEFLFRHLIIGELGKKLNFYVMSVISIIVFASLHVTEAKSPLEIVMYLAIAVGIVYVYMKSQRSLAVAIALHALNNLLAYIFMIIM	failed
MSFSTEIEVRFKHCDPAGIVFFPRYFEMINDVVEDWFANDLGCPFHELVKENGAPTAQIQARFTAPSLHGDVLSFRLTPTRIGNSSLDYDLTAHCGDELRLRATATLVHVARLGRSQPWPQAIRERVAAQIDSALEHHHHHH	failed
MSFVECPYHSPAERLVAEADEGGPSAITGMGLCFRCLLFSFSGRSGVEGGRVDLNVFGSLGLQPWIGSSRCWGGPCSSALRCGWFSSWPPPSKSAIPIGGGSRGAGRVSRWPPPHWLEAWRVSPRPLSPLSPATFGRGFIAVAVIPGLWARGRGCSSDRL	failed
MSFVTTQPEALAAAAANLQGIGTTMNAQNAAAAAPTTGVVPAAADEVSALTAAQFAAHAQMYQTVSAQAAAIHEMFVNTLVASSGSYAATEAANAAAAG	failed
MSFYVVVGAGPVGRETARLLGEEGHDVVLTSRSVGSNALPNVRTVQADATDASELSRICRGADAIFMCAMAAYHRWPTDFFPIIDGTVRAAEAVGAKLIVLGNLYGYGENADSPLRSDLPLDPTSRKGTARTIMWQRAVRAGIPAIEIRSSDYLGHGAISYFSLIALPAIIEGKPTAFIGDLDATHAWAFTKDVARTLVAAALYKGEWGRAFHVPSQYASPRELIQKAAAMLGQEVSGTLSYSVPEIEALGMHEAIEMSYLFEKPLLVDASDTEALLGVKASSLEEMIADTLRDHL	failed
MSGDILNDIVAACLELERKASSVFKMFAAHAGSDEARRFWETVADETRHHSAVYERLQERGGRENLPIIIYKPAETLEELEMIGKSIDEQVERYTEAPSSEAACLLGFRLQLYLLHPAFASLCRLTRDASGEDLPDIGYGRYLRRFIDGIGSCGLATAETELLGEALFRLWNEARQLAAQSHFDALTGVMTRAGFFKTVGSLAYAAQRSGSNVGIMLIDLDYFKLVGDNYGHQTGDRILQLVAETITSHLRRSDVVGRYDGDEFVVYLSPVEPASLRTVAENLRRSIEEESARMVPVTASIGVAQGILGTDVDGGIEELVRLADECLMQAKYTGKNKVVVK	not failed
MSGDYRITLEELRYISVFHSITGVTAYRCIVDEENNRLIFLVSEGEAGRAIGRGGRLIKLLREALGKNIEVVEYSSDLERIVKNLFPGVKIESINVRERNGVKQVVIKVSEDDKGAAIGKGGKNVKRARLVLSKLFGVEKVVIR	not failed
MSGEGDTTLKAICYKPGSLQLLDQRKLPLETIYLEIRDASDGWSAIQEMVVRGAPAIAIAAALSLAVEVFNFHGFDGSASDAVAFLENKLDYLVSSRPTAVNLADAALKLKHVIAKALATATEAKSIFKAYIEASEDMLEDDVVSNKAIGNFGLSLLRQQAKNPDKLSVLTHCNTGSLATAGYGTALGVIRALHTQGILERAYCTETRPFNQGSRLTAFELVHEKIPATLIADSAAAALMKDGRVDGVIVGADRVASNGDTANKIGTYSLALCAKHHGIPFYVAAPLTSVDLSLSSGKEIVIEERSPKELMHTHGGLGERIAAPGISVWNPAFDMTPAELIAGIITEKGVITKNGNDTFDISSFAKKITGNSSR	failed
MSGEKIDITPKKDGGVLKLIKKEGQGVVKPTTGTTVKVHYVGTLENGTKFDSSRDRGDQFSFNLGRGNVIKGWDLGVATMTKGEVAEFTIRSDYGYGDAGSPPKIPGGATLIFEVELFEWSAEDISPDRDGTILRTIIVEGSKNSFPNDTSKVLAHCVGTYQGTEFYNREVNFHIGEGSEEGLPEGVERALRRFQLGEKSKIEIRGHKYTYGNSPPAGSNIPVNATLEFTIFLKEFEKVPATWEMTAEEKLDAAKQAKDRGTMYLQKGNLKLAYNKYKRAEEVLEYEKSTDPEKMAERETILNGAYLNLSLVCSKQNEQLECIKWCDKVLETKPGNVKALYRKATALLTMNEVRDAMKLFEKIVEVEPENKAAAQQIIVCRNTIREQNERDKKRFKNLFAKISTEEDKPTNTVEDEDEIVASTSGSSTSNA	not failed
MSGFSMKRVSQMTALAMALGLACASSWAAELAKPLTLDQLQQQNGKAIDTRPSAFYNGWPQTLNGPSGHELAALNLSASWLDKMSTEQLNAWIKQHNLKTDAPVALYGNDKDVDAVKTRLQKAGLTHISILSDALSEPSRLQKLPHFEQLVYPQWLHDLQQGKEVTAKPAGDWKVIEAAWGAPKLYLISHIPGADYIDTNEVESEPLWNKVSDEQLKAMLAKHGIRHDTTVILYGRDVYAAARVAQIMLYAGVKDVRLLDGGWQTWSDAGLPVERGTPPKVKAEPDFGVKIPAQPQLMLDMEQARGLLHRQDASLVSIRSWPEFIGTTSGYSYIKPKGEIAGARWGHAGSDSTHMEDFHNPDGTMRSADDITAMWKAWNIKPEQQVSFYCGTGWRASETFMYARAMGWKNVSVYDGGWYEWSSDPKNPVATGERGPDSSK	failed
MSGGGVIRGPAGNNDCRIYVGNLPPDIRTKDIEDVFYKYGAIRDIDLKNRRGGPPFAFVEFEDPRDAEDAVYGRDGYDYDGYRLRVEFPRSGRGTG	not failed
MSGGLVALLDDVAALARIAAASVDDIAAGAAKAGAKAAGVVIDDAAVTPQYVSGADPSRELPMIKRIFWGSLRNKLLIILPALLLVSAFIPGVIPFILMLGGTYLCYEGAEKVWHKLRGHSATEKAPAVQRGPEAEAKVTKGAITTDFILSCEIMVIAMNEVADESLWVRALILVVVAFVITVVVYGAVGLIVKMDDIGLHLTTKASSGSQRFGRLLVKGMPAVLAAITLIGTIAMLWVGGHIMLQGAYDLGWHAPYDLVHVLETPFAGIPVAGGFLAWLVNTLCSAILGAVWGLVIMVILHPLLKVLPFGKKHEGHEEGDVRAAIAGYRPAKSKPTR	failed
MSGKRALITGIRGQDGAYLAKLLLEKGYEVYGADRRSGEFASWRLKELGIENDVKIIHMDLLEFSNIIRTIEKVQPDEVYNLAAQSFVGVSFEQPILTAEVDAIGVLRILEALRTVKPDTKFYQASTSEMFGKVQEIPQTEKTPFYPRSPYAVAKLFGHWITVNYREAYNMFACSGILFNHESPLRGIEFVTRKITYSLARIKYGLQDKLVLGNLNAKRDWGYAPEYVEAMWLMMQQPEPDDYVIATGETHTVREFVEKAAKIAGFDIEWVGEGINEKGIDRNTGKVIVEVSEEFFRPAEVDILVGNPEKAMKKLGWKPRTTFDELVEIMMEADLKRVRDREVSV	not failed
MSGLRVYSTSVTGSREIKSQQSEVTRILDGKRIQYQLVDISQDNALRDEMRTLAGNPKATPPQIVNGNHYCGDYELFVEAVEQDTLQEFLKLA	not failed
MSGQADTATTAEARTPAHAAHHLVEGVARVLTKPRFRGWIHVYSAGTAVLAGASLVAVSWAVGSAKAGLTTLAYTAATITMFTVSATYHRVNWKSATARNWMKRADHSMIFVFIAGSYTPFALLALPAHDGRVVLSIVWGGAIAGILLKMCWPAAPRSVGVPLYLLLGWVAVWYTATILHNAGVTALVLLFVGGALYSIGGILYAVRWPDPWPTTFGYHEFFHACTAVAAICHYIAMWFVVF	failed
MSGQPTAVDCLESSGSTVEDVQETPASREKSYGLPVRKGENSLESPAEQAAKDVEIEELTHSEAIAATGSTRKQCPYGGKAPDEPGKLADESEDRKGENTKAIASSPVLVAVDSDSSVELIESPVKFSSANESEKDPPKPDAVNEAAAKE	failed
